Experimental data reported in article PMC4263667, “Nanobody Mediated Inhibition of Attachment of F18 Fimbriae Expressing Escherichia coli” (PLoS ONE, 2014).

T1: FedF_(15–165), N-terminal lectin domain of the F18 fimbrial tip adhesin FedF (Escherichia coli (F18-fimbriated …, NT647 on surface exposed amine groups (in the MST only)))
T1 construct: also called FedF lectin domain
T1 chain: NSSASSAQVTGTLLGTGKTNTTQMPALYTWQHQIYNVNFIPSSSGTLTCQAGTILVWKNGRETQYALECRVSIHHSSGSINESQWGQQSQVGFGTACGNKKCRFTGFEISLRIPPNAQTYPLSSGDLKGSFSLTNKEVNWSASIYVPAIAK

B1: NbFedF9 (VHH)
VHH: QVQLQESGGGSVQAGGSLRLSCAASGYTYSSNCMAWFRQVPGKEREGVASINTRGGITYYADSVKGRFTISRDNAKNTVSLQMNSLKPEDTATYYCAAVREATYSDNRCSVRSYTYDYWGQGTQVTVSS
notes: source: E. coli WK6, periplasmic extract, purified (Ni-NTA); not shown: His6, C-terminal, kept
B2: NbFedF7 (VHH)
VHH: QVQLQESGGGSVQAGGSLRLSCTASGYTYRKYCMGWFRQAPGKEREGVACINSGGGTSYYADSVKGRFTISQDNAKDTVFLRMNSLKPEDTAIYYCALSSNSVCPPGHVAWYNDWGQGTQVTVSS
notes: as for B1
B3: NbFedF6 (VHH)
VHH: QVQLQESGGGSVQAGGSLRLSCAASGYTSGRDSMGWFRQAPGKEREGVACIDTSGIVNYADSVKGRFTISQDSAKKTLYLEMNSLKPEDTALYSCATGPFVYGRGCLGQAFYSYWGQGTQVTVSS
notes: as for B1
B4: NbFedF12 (VHH)
VHH: QVQLQESGGGSVQAGGSLRLSCAASGNTKSYWMGWFRQAPGKEREGVAVIAGGGAFTYYAESVKGRFTISQDNTKDTVYLAMNSLKPEDTALYYCALRTLNNGGIFLLNSPSSFHYWGQGTQVTVSS
notes: source: E. coli WK6, periplasmic extract, purified (Ni-NTA)

Target: T1, FedF_(15–165), N-terminal lectin domain …
Test: MST
Settings: both partners purified
B1 was tested, and the Kd was 1.58 nM. Work on B2 yielded a Kd of 5.25 nM. Work on B3 yielded a Kd of 3.57 nM. B4 was tested, and the Kd was 29 nM.
